From US20110123544A1 (published 2011)

T1: recombinant human IL-12 (rhIL-12) (human, UniProt P29459 23-219; P29460 23-328)
T1 chain 1: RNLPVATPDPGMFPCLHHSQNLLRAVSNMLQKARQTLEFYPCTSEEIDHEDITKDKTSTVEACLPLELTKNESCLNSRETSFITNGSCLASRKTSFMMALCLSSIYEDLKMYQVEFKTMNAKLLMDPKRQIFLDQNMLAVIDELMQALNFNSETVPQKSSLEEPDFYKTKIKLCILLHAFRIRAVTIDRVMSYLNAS
T1 chain 2: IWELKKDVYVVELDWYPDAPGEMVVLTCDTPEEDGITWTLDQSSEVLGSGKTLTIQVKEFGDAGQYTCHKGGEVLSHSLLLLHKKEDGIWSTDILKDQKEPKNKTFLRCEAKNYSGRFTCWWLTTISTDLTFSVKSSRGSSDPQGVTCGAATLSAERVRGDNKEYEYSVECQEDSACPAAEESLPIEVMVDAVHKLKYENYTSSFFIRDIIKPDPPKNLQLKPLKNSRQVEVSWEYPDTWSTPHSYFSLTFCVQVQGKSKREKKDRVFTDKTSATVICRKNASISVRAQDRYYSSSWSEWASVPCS

T2: recombinant human IL-12 (rhIL-12) (human, UniProt P29459 23-219; P29460 23-328)
T2 construct: disulfide-linked p35/p40 heterodimer (p70); also called rec. human IL12; IL-12 p70
T2 sequence (looked up) 1: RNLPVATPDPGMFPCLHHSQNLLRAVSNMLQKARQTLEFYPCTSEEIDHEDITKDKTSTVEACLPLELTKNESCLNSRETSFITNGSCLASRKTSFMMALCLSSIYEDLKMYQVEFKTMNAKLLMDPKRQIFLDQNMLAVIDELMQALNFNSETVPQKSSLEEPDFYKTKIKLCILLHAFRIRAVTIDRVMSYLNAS
T2 sequence (looked up) 2: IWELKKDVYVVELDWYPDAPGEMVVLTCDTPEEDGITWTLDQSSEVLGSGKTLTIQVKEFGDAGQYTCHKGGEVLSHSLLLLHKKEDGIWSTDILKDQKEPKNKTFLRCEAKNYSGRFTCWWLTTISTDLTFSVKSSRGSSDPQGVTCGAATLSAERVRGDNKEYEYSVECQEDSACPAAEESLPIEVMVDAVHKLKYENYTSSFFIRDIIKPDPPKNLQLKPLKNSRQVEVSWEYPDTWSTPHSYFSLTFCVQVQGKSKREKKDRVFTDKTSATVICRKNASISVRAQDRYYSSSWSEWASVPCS

T3: recombinant human interleukin 12 (p40/p35 heterodimer) (human, UniProt P29460 23-328; P29459 23-219)
T3 chain 1: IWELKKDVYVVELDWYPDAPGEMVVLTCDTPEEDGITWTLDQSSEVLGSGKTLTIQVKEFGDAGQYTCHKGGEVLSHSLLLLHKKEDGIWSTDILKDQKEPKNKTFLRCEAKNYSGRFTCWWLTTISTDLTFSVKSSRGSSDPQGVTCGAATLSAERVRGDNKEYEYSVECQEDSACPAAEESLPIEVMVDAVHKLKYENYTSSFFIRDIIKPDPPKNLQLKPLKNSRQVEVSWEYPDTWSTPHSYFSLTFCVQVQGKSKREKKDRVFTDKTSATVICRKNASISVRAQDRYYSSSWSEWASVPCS
T3 chain 2: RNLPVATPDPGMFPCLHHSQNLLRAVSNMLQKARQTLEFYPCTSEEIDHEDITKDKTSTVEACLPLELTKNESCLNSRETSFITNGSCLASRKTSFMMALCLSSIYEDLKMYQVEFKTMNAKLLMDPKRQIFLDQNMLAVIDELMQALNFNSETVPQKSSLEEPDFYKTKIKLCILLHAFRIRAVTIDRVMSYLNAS


Biological target: T1, recombinant human IL-12 (rhIL-12)
Assay: BIAcore

Row | Binder | koff [s⁻¹]
1 | HGSHDR [Y61 H102 R] | 0.000575
2 | HGSHDS [Y61 H102 S] | 0.000325
3 | HGSHDT [Y61 H102 T] | 0.000333
4 | HGSHDI [Y61 H102 I] | 0.000996
5 | HGSHAN [Y61 H101 A] | 0.00106
6 | HGSHIN [Y61 H101 I] | 0.00162
7 | HGSHNN [Y61 H101 N] | 0.00223
8 | HGSHDW [Y61 H102 W] | 0.000235
9 | HGSHDA [Y61 H102 A] | 0.000382
10 | HGSHDH [Y61 H102 H] | 0.00018

Further lines, results first:

Row | koff [s⁻¹] | Binder
11 | 0.000692 | HGSHDG [Y61 H102 G]
12 | 0.000318 | HGSHDF [Y61 H102 F]
13 | 0.00163 | HGSHVN [Y61 H101 V]
14 | 0.000956 | HGSHDL [Y61 H102 L]
15 | 0.000405 | HGSHDK [Y61 H102 K]
16 | 0.00375 | HGSHGN [Y61 H101 G]
17 | 0.00181 | HGSHDP [Y61 H102 P]

Biological target: T1, recombinant human IL-12 (rhIL-12)
Assay: BIAcore
Remark: another data set of the same source

Row | koff [s⁻¹] | Binder
18 | 0.00041 | PNDQRPS [Y61 L50 P]
19 | 0.000348 | QNDQRPS [Y61 L50 Q]

These binders were tested against T2, recombinant human IL-12 (rhIL-12) (assay: BIAcore (SPR) off-rate on IL-12 chip).
Source text: The system utilizes the optical properties of SPR to detect alterations in protein concentrations within a dextran biosensor matrix. Proteins are covalently bound to the dextran matrix at known concentrations. […] To determine the off rate (koff), on rate (kₒₙ), association rate (Ka) and dissociation rate (Kd) constants, BIAcore kinetic evaluation software (version 2.1) was used.

Row | Binder | koff [s⁻¹]
20 | 99-F7 (scFv, V domains shown) VH: QVQLVQSGGGVVQPGRSLRLSCAASGFTFSSYGMHWVRQAPGKGLEWVAFIRYDGSNKYYADSVKGRFTISRDNSKNTLYLQMKSLRAEDTAVYYCKTHGSHDNWGQGTMVTVSS VL: SYVLTQPPSVSGTPGQRVTISCSGGRSNIGSNTVKWYQQLPGTAPKLLIYGNDQRPSGVPDRFSGSKSGTSASLAITGVQAEDEADYYCQSYPNSYPISRVFGTGTKVTVLG | 0.0048
21 | 99-H11 (scFv, V domains shown) VH: QVQLVQSGGGVVQPGRSLRLSCAASGFTFSSYGMHWVRQAPGKGLEWVAFIRYDGSNKYYADSVKGRFTISRDNSKNTLYLQMKSLRAEDTAVYYCKTHGSHDNWGQGTMVTVSS VL: SYVLTQPPSVSGTPGQRVTISCSGGRSNIGSNTVKWYQQLPGTAPKLLIYGNDQRPSGVPDRFSGSKSGTSASLAITGVQAEDEADYYCQSYSTHMPISRVFGTGTKVTVLG | 0.0049
22 | 99-F6 (scFv, V domains shown) VH: QVQLVQSGGGVVQPGRSLRLSCAASGFTFSSYGMHWVRQAPGKGLEWVAFIRYDGSNKYYADSVKGRFTISRDNSKNTLYLQMKSLRAEDTAVYYCKTHGSHDNWGQGTMVTVSS VL: SYVLTQPPSVSGTPGQRVTISCSGGRSNIGSNTVKWYQQLPGTAPKLLIYGNDQRPSGVPDRFSGSKSGTSASLAITGVQAEDEADYYCQSYDSGSTGSRVFGTGTKVTVLG | 0.0049

Other lines, results leading:

Row | koff [s⁻¹] | Binder
23 | 0.0048 | 99-H4 (scFv, V domains shown) VH: QVQLVQSGGGVVQPGRSLRLSCAASGFTFSSYGMHWVRQAPGKGLEWVAFIRYDGSNKYYADSVKGRFTISRDNSKNTLYLQMKSLRAEDTAVYYCKTHGSHDNWGQGTMVTVSS VL: SYVLTQPPSVSGTPGQRVTISCSGGRSNIGSNTVKWYQQLPGTAPKLLIYGNDQRPSGVPDRFSGSKSGTSASLAITGVQAEDEADYYCQSYDSRFTGSRVFGTGTKVTVLG
24 | 0.0033 | 99-H7 (scFv, V domains shown) VH: QVQLVQSGGGVVQPGRSLRLSCAASGFTFSSYGMHWVRQAPGKGLEWVAFIRYDGSNKYYADSVKGRFTISRDNSKNTLYLQMKSLRAEDTAVYYCKTHGSHDNWGQGTMVTVSS VL: SYVLTQPPSVSGTPGQRVTISCSGGRSNIGSNTVKWYQQLPGTAPKLLIYGNDQRPSGVPDRFSGSKSGTSASLAITGVQAEDEADYYCQSYPDGTPASRVFGTGTKVTVLG

Biological target: T3, recombinant human interleukin 12 …
Assay: BIAcore

Row | Binder | koff [s⁻¹]
25 | FIRYDGSNKNYADSVKG [Y61 H58 N] | 0.000831
26 | FIRYDGSSKYYADSVKG [Y61 H56 S] | 0.000624
27 | FIRYDGSTKYYADSVKG [Y61 H56 T] | 0.000235
28 | FIRYDGSLKYYADSVKG [Y61 H56 L] | 0.000264
29 | FIRYDGSMKYYADSVKG [Y61 H56 M] | 0.000383
30 | FIRYDGSNKLYADSVKG [Y61 H58 L] | 0.00073
31 | FIRYDGSNKPYADSVKG [Y61 H58 P] | 0.000628
32 | FIRYDGSNKVYADSVKG [Y61 H58 V] | 0.000524
33 | FIRYDFSNKYYADSVKG [Y61 H54 F] | 0.000663
34 | FIRYDGSIKYYADSVKG [Y61 H56 I] | 0.000169
35 | FIRYDGSFKYYADSVKG [Y61 H56 F] | 0.000345
36 | FIRYDGSGKYYADSVKG [Y61 H56 G] | 0.000272
37 | FIRYDGSNKFYADSVKG [Y61 H58 F] | 0.000794

Second part, the binder after the results:

Row | koff [s⁻¹] | Binder
38 | 0.000657 | FIRYDGSNKIYADSVKG [Y61 H58 I]
39 | 0.00039 | FIRYDGSYKYYADSVKG [Y61 H56 Y]
40 | 0.000299 | FIRYDGSPKYYADSVKG [Y61 H56 P]
41 | 0.00042 | FIRYDGSHKYYADSVKG [Y61 H56 H]
42 | 0.000415 | FIRYDGSNKEYADSVKG [Y61 H58 E]
43 | 0.000941 | FIRYDGSNKSYADSVKG [Y61 H58 S]
